The target in this assay is Lactobacillus helveticus chlorogenic acid esterase (LhCE), wild type (Lactobacillus helveticus). As to the kind of experiment: crystal structure.

For “Lactobacillus helveticus chlorogenic acid esterase (LhCE), wild type (enzyme)”, the stoichiometry N (commonly a count of units in the complex or per binding partner) was found to be 2.

The values above are taken from publication doi:10.1101/2023.05.30.542953.
